From publication PMC9482650, “Quantitative fragmentomics allow affinity mapping of interactomes” (Nature Communications, 2022)

Legend:
Assay in all cases: holdup assay
Set-up in all cases: key: below the threshold = too weak to quantify, mostly under pKd 3.1 to 4
Settings in all cases: plain residues with an end cap or a label only (N-terminal biotin on a linker: ado-ado)
[1] = target: GRIP2_3, Q9C0E4
[2] = target: T1, APBA2_2, Q99767
T1 sequence (Q99767 654-744, limits assumed, looked up): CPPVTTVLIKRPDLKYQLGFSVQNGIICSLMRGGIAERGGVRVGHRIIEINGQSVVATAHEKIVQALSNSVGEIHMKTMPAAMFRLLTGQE

[3] = target: LAP2, Q96RT1
[4] = target: T2, MPDZ_10, O75970
T2 sequence (O75970 1624-1722, limits assumed, looked up): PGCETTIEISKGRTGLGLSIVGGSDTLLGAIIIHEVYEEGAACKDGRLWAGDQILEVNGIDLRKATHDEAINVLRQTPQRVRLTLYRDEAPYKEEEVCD

[5] = target: GRIP2_5, Q9C0E4
[6] = target: T3, GRIP1_2, Q9Y3R0
T3 sequence (Q9Y3R0 145-248, limits assumed, looked up): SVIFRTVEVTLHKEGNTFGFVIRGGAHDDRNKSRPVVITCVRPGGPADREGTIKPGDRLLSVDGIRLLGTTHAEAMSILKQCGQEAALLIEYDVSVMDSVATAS

[7] = target: PARD3_3, Q8TEW0
[8] = target: Inadl_2, Q8NI35
[9] = target: GRIP2_4, Q9C0E4
[10] = target: T4, DFNB31_1, Q9P202
T4 sequence (Q9P202 135-233, limits assumed, looked up): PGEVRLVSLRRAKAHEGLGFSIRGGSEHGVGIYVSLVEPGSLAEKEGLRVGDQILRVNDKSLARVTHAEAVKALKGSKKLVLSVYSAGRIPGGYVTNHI

[11] = target: T5, PDZRN3_1, Q9UPQ7
T5 sequence (Q9UPQ7 244-349, limits assumed, looked up): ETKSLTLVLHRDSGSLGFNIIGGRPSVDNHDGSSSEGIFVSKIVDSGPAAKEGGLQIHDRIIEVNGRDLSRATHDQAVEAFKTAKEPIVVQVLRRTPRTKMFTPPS

[12] = target: T6, TIAM2, Q8IVF5
T6 sequence (Q8IVF5 885-986, limits assumed, looked up): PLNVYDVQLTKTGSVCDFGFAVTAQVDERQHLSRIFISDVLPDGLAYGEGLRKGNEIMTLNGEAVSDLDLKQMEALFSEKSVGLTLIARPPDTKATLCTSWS

[13] = target: T7, PARD3B_1, Q8TEW8
T7 sequence (Q8TEW8 196-299, limits assumed, looked up): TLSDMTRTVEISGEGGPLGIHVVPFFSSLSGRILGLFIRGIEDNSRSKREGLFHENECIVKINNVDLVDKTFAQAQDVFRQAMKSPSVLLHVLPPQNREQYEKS

[14] = target: MAGI1_1, Q96QZ7
[15] = target: LNX1_2, Q8TBB1
[16] = target: T8, APBA2_1, Q99767
T8 sequence (Q99767 563-664, limits assumed, looked up): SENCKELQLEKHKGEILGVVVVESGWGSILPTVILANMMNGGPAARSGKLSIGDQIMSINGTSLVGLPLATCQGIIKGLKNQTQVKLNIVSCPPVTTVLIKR

[17] = target: FRMPD3, Q5JV73
[18] = target: T9, NHERF3_1, Q5T2W1
T9 sequence (Q5T2W1 4-100, limits assumed, looked up): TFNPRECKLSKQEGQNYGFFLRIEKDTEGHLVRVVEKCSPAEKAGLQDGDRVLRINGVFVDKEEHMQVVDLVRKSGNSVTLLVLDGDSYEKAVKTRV

[19] = target: DLG4_1, P78352
[20] = target: FRMPD2_3, Q68DX3
[21] = target: LNX1_1, Q8TBB1
[22] = target: GRIP2_6, Q9C0E4
[23] = target: GORASP1, Q9BQQ3
[24] = target: T10, PTPN13_1, Q12923
T10 sequence (Q12923 1088-1188, limits assumed, looked up): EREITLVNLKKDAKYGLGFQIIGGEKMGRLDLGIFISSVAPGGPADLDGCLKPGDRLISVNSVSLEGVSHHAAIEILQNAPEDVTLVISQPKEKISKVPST

[25] = target: NHERF2_2, Q15599
[26] = target: T11, SNTG2, Q9NY99
T11 sequence (Q9NY99 68-166, limits assumed, looked up): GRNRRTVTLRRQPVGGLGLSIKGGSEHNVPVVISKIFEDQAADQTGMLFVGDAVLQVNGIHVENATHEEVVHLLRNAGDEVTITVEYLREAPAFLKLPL

[27] = target: HTRA2, O43464
HTRA2, O43464, sequence (O43464 355-458): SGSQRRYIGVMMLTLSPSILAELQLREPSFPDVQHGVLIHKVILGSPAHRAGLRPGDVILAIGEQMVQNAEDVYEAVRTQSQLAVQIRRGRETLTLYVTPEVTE

GRIP2_4, Q9C0E4, sequence (Q9C0E4 446-548): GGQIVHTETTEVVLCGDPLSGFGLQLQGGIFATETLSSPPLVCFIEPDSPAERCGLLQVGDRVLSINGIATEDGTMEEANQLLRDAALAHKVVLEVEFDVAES
DLG4_1, P78352, sequence (P78352 62-152): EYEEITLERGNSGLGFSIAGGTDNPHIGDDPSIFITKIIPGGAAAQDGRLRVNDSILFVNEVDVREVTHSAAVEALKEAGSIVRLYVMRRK
GORASP1, Q9BQQ3, sequence (Q9BQQ3 1-208): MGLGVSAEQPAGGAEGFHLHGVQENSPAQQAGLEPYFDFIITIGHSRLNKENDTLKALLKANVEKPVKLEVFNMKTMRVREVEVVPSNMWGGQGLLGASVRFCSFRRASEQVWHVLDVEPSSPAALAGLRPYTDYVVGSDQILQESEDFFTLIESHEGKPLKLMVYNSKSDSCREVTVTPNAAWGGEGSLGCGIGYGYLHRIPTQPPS
GRIP2_5, Q9C0E4, sequence (Q9C0E4 544-642): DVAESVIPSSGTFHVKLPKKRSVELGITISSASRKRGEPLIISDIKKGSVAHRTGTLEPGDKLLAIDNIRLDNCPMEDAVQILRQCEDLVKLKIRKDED
NHERF2_2, Q15599, sequence (Q15599 142-238): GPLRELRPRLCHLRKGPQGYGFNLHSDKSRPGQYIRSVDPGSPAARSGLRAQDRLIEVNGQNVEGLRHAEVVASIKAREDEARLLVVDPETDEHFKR
LNX1_1, Q8TBB1, sequence (Q8TBB1 261-371): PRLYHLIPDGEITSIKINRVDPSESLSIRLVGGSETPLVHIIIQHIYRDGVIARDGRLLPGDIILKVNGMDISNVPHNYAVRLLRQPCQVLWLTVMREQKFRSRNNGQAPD
PARD3_3, Q8TEW0, sequence (Q8TEW0 582-685): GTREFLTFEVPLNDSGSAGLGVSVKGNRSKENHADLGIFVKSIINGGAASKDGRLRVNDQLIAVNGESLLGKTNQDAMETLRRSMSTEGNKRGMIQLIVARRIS
GRIP2_3, Q9C0E4, sequence (Q9C0E4 238-339): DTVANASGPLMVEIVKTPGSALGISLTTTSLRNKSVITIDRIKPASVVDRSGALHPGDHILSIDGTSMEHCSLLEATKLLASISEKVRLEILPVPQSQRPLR
GRIP2_6, Q9C0E4, sequence (Q9C0E4 648-740): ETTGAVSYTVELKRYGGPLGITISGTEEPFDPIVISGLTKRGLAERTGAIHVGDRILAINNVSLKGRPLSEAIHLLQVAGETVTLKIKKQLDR
Inadl_2, Q8NI35, sequence (Q8NI35 238-335): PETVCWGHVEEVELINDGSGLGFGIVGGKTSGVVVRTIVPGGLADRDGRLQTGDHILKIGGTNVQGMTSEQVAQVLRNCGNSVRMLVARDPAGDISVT
MAGI1_1, Q96QZ7, sequence (Q96QZ7 1-106): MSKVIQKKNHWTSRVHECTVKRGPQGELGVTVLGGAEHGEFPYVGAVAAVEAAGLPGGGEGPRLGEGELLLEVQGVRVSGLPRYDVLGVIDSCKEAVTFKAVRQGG
LAP2, Q96RT1, sequence (Q96RT1 other isoform, or with tags, fused parts or gaps): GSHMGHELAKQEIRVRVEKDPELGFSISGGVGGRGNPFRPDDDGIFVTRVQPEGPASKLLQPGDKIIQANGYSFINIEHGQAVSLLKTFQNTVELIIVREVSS
FRMPD3, Q5JV73, sequence (Q5JV73 12-100): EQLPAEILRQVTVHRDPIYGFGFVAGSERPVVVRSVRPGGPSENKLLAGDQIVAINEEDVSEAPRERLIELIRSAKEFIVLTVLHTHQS
LNX1_2, Q8TBB1, sequence (Q8TBB1 371-470): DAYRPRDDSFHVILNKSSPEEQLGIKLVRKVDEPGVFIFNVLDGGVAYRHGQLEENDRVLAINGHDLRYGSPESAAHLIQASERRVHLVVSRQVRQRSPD
FRMPD2_3, Q68DX3, sequence (Q68DX3 1073-1166): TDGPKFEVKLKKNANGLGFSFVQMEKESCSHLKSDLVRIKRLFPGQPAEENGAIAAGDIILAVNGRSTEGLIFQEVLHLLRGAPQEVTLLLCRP

| Binder | pKd [1] | pKd [2] | pKd [3] | pKd [4] | pKd [5] | pKd [6] | pKd [7] | pKd [8] | pKd [9] | pKd [10] | pKd [11] | pKd [12] | pKd [13] | pKd [14] | pKd [15] | pKd [16] | pKd [17] | pKd [18] | pKd [19] | pKd [20] | further results |
| --- | --- | --- | --- | --- | --- | --- | --- | --- | --- | --- | --- | --- | --- | --- | --- | --- | --- | --- | --- | --- | --- |
| PKSNSSKEYV [CLDN7, O95471] | below the threshold | below the threshold | below the threshold | below the threshold | below the threshold | below the threshold | below the threshold | below the threshold | below the threshold | below the threshold | below the threshold | below the threshold | below the threshold | below the threshold | below the threshold | below the threshold | below the threshold | below the threshold | below the threshold | below the threshold | pKd [21]: below the threshold; pKd [22]: below the threshold; pKd [23]: below the threshold; pKd [24]: below the threshold; pKd [25]: below the threshold; pKd [26]: below the threshold; pKd [27]: below the threshold |
| SQPLLVHDDV [KIT, P10721] | below the threshold | below the threshold | 3.56 | 3.93 | below the threshold | below the threshold | below the threshold | below the threshold | below the threshold | below the threshold | below the threshold | below the threshold | below the threshold | below the threshold | below the threshold | below the threshold | below the threshold | below the threshold | below the threshold | below the threshold | pKd [21]: below the threshold; pKd [22]: below the threshold; pKd [23]: below the threshold; pKd [24]: below the threshold; pKd [25]: below the threshold; pKd [26]: below the threshold; pKd [27]: below the threshold |
| EFKQTSSFLV [JAM1, Q9Y624] | below the threshold | below the threshold | below the threshold | below the threshold | below the threshold | below the threshold | 3.75 | 3.56 | below the threshold | below the threshold | below the threshold | 4.14 | 4.72 | 3.49 | 4.26 | below the threshold | below the threshold | 4.16 | below the threshold | below the threshold | pKd [21]: 3.6; pKd [22]: 4.35; pKd [23]: 4.37; pKd [24]: below the threshold; pKd [25]: below the threshold; pKd [26]: below the threshold; pKd [27]: 3.78 |
